The supplement of paper PMC10724198
± gives the standard deviation of the averaged measurements.

Columns and labels:
[1] = test system: Saccharomyces cerevisiae; test: protein stability index of tFT-peptide fusion (C-terminal peptide) (PSI (0-1 scale)); higher = more stable (slower turnover)
Experimental: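 MPS profiling in S. cerevisiae of the tFT-X12 degron library: putative degron peptides plus stable controls, 12 aa, fused to the C-terminus of a sfGFP-mCherry timer. Cells are FACS-sorted into 8 mCherry/sfGFP bins and deep-sequenced. PSI runs from 0 (unstable) to 1 (stable). Backgrounds are wild type, das1Δ and doa10Δ at 30 °C, and wild type, das1Δ, cdc34-1 and cdc53-1 at 37 °C; 2-3 technical replicates each.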

[2] = test system: Saccharomyces cerevisiae; test: as above; conditions: genetic background: wild type; temperature: 30 C
[3] = genetic background: cdc34-1, temperature: 37 C
[4] = genetic background: cdc53-1, temperature: 37 C
[5] = genetic background: das1 deletion, temperature: 30 C
[6] = genetic background: das1 deletion, temperature: 37 C
[7] = genetic background: doa10 deletion, temperature: 30 C
[8] = genetic background: wild type, temperature: 30 C
[9] = genetic background: wild type, temperature: 37 C
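Further: PSI is a weighted mean of sequencing reads over stability bins, variants kept only with over 10 reads, mCherry proximal and sfGFP distal, peptide attached via GGGS linker.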

Sequence	protein stability index [1, 3]	protein stability index [1, 4]	protein stability index [1, 5]	protein stability index [1, 6]	protein stability index [1, 7]	protein stability index [1, 8]	protein stability index [1, 9]	protein stability index [2]
LSRLWVVGWVVA	0.453 ± 0.019	0.472 ± 0.028	0.345 ± 0.032	0.529 ± 0.0071	0.191 ± 0.0034	0.234 ± 0.025	0.399 ± 0.013	0.295 ± 0.036
LSSIIRFLIFCL	0.496 ± 0.024	0.532 ± 0.015	0.495 ± 0.024	0.5964 ± 0.0026	0.398 ± 0.031	0.366 ± 0.0049	0.469 ± 0.0062	0.404 ± 0.013
LTIYPLTYCFVS	0.629 ± 0.051	0.704 ± 0.046	0.562 ± 0.025	0.657 ± 0.058	0.45336 ± 0.00045	0.44 ± 0.023	0.568 ± 0.025	0.502 ± 0.035
LVDSRIVWLFVS	0.325 ± 0.095	0.584 ± 0.034	0.439 ± 0.026	0.632 ± 0.024	0.0761 ± 0.016	0.0713 ± 0.017	0.0698 ± 0.021	0.0955 ± 0.039
LVFFAYLIRGAL	0.344 ± 0.0086	0.462 ± 0.011	0.364 ± 0.031	0.518 ± 0.015	0.0526 ± 0.0068	0.0682 ± 0.0051	0.0558 ± 0.0015	0.108 ± 0.036
LVGLESCGERAG	0.655 ± 0.00071	0.7436 ± 0.0018	0.644 ± 0.025	0.7308 ± 0.0011	0.643 ± 0.027	0.654 ± 0.0009	0.72 ± 0.024	0.69 ± 0.035
LVHLVLYVAVFC	0.317 ± 0.043	0.4112 ± 0.0015	0.292 ± 0.048	0.409 ± 0.0046	0.2877 ± 0.0014	0.309 ± 0.013	0.398 ± 0.0049	0.283 ± 0.074
LVLLRLSSLTIF	0.627 ± 0.01	0.699 ± 0.0095	0.561 ± 0.018	0.707 ± 0.012	0.269 ± 0.011	0.314 ± 0.011	0.549 ± 0.034	0.404 ± 0.0068
LVVFLRFFLRVL	0.105 ± 0.0097	0.106 ± 0.002	0.166 ± 0.028	0.265 ± 0.039	0.175 ± 0.003	0.114 ± 0.033	0.158 ± 0.016	0.199 ± 0.0035
LVVGCFLTFCFG	0.241 ± 0.013	0.366 ± 0.012	0.26 ± 0.028	0.441 ± 0.0089	0.212 ± 0.0024	0.236 ± 0.038	0.402 ± 0.0085	0.315 ± 0.028
LWFGAWWLGAVG	0.318 ± 0.031	0.361 ± 0.0043	0.411 ± 0.0063	0.336 ± 0.0087	0.4166 ± 0.0011	0.421 ± 0.0065	0.32 ± 0.013	0.457 ± 0.0053
LWGVGRQRNIAS	0.684 ± 0.033	0.758 ± 0.015	0.655 ± 0.038	0.769 ± 0.021	0.291 ± 0.036	0.304 ± 0.018	0.582 ± 0.021	0.41 ± 0.013
LWRRSLLLLRCC	0.0526 ± 0.0063	0.0759 ± 0.04	0.173 ± 0.029	0.244 ± 0.015	0.0637 ± 0.013	0.0611 ± 0.0038	0.0618 ± 0.0063	0.0946 ± 0.013
LWYVQILNIVLN	0.31 ± 0.018	0.388 ± 0.019	0.293 ± 0.048	0.4552 ± 0.0029	0.233 ± 0.024	0.249 ± 0.029	0.409 ± 0.013	0.328 ± 0.033
LYLEAYFCIFHF	0.356 ± 0.052	0.449 ± 0.0069	0.358 ± 0.025	0.422 ± 0.013	0.334 ± 0.017	0.327 ± 0.004	0.401 ± 0.015	0.36 ± 0.024
